This passage reports binding result and Kd results from publication PMC10484726, “Archaeal Hel308 suppresses recombination through a catalytic switch that controls DNA annealing”.

Broadly, the Kd is the constant that tells how readily two partners part at equilibrium.

Common to all, as to conditions: protein: recombinant; tags: N-terminal His6; label: Cy5 (end label); fork
One data set deals with T1, Mth-Hel308 Y586A (Methanothermobacter thermautotrophicus, UniProt O26901 1-690, Y586A).
T1 sequence: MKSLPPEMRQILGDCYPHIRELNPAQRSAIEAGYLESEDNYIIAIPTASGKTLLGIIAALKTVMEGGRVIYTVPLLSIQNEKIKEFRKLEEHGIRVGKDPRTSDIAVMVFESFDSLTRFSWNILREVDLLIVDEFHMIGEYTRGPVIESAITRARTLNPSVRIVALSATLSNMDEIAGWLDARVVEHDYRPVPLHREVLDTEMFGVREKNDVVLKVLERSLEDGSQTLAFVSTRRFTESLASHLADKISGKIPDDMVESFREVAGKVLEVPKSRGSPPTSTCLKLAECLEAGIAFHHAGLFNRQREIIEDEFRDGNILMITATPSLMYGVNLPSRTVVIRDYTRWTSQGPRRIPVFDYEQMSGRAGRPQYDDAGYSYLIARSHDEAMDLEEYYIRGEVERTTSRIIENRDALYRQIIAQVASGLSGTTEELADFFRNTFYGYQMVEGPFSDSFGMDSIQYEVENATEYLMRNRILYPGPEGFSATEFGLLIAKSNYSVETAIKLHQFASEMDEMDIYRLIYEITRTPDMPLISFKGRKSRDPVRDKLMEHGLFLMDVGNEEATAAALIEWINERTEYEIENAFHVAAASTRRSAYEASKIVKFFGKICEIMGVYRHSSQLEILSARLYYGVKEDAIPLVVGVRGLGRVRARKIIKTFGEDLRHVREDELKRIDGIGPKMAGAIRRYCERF
Put plainly: EMSA; 5 mM EDTA; 25 nM DNA; similar to wild type; EMSA: 20 mM Tris-HCl pH 7.5, 100 ug/ml BSA, 7% glycerol, 25 mM DTT, 5 mM EDTA, 25 nM Cy5-DNA; 5% TBE gel; no added salt stated; 37 C 10 min stated for duplex DNA reactions.

The target of another data set is T2, Mth-Hel308 F295A (Methanothermobacter thermautotrophicus, UniProt O26901 1-690, F295A).
T2 sequence: T1 sequence with F295A, A586Y
Briefly: EMSA; 5 mM EDTA; 25 nM DNA; EMSA: 20 mM Tris-HCl pH 7.5, 100 ug/ml BSA, 7% glycerol, 25 mM DTT, 5 mM EDTA, 25 nM Cy5-DNA; 5% TBE gel; no added salt stated; 37 C 10 min stated for duplex DNA reactions.

The target in another data set is T3, Mth-Hel308 R591A (Methanothermobacter thermautotrophicus, UniProt O26901 1-690, R591A).
T3 sequence: T1 sequence with A586Y, R591A
The data set is described as above.

Residue numbers refer to the chain shown, from its start.

B1: forked DNA substrate (dsDNA)
DNA 1: GTCGGATCCTCTAGACAGCTCCATGATCACTGGCACTGGTAGAATTCGGC
DNA 2: CAACGTCATAGACGATTACATTGCTACATGGAGCTGTCTAGAGGATCCGA
With B1, the binding result with Mth-Hel308 Y586A and with Mth-Hel308 R591A was “binds” throughout. For the same molecule, the Kd with Mth-Hel308 F295A worked out at 19.3 nM.
